Source: patent US20250312438A1 (published 2025)
Read-outs that look alike come from different tables or passages of the source.

Experiments:
[1] = target: HLA-DRA*01:01 W168R / HLA-DRB1*04:01 F31V/H33N; assay: BLI
[2] = target: HLA-DRA*01:01 No mut. / HLA-DRB1*04:01 F31V/H33N; assay: BLI
[3] = target: HLA-DRA*01:01 W168R / HLA-DRB1*04:01 No mut.; assay: BLI
[4] = target: HLA-DRA*01:01 W168R / HLA-DRB1*04:01 F31I/H33N; assay: BLI
[5] = target: HLA-DRA*01:01 No mut. / HLA-DRB1*04:01 F31I/H33N; assay: BLI
[6] = target: T1, recombinant HLA-DR (DRA*01:01/DRB1*04:01) with covalently attached Influenza Hemagglutinin (HA) peptide (human;Influenza); assay: BLI
[7] = target: T1, recombinant HLA-DR …; assay: BLI; remark: listed apart in the source
BJAB cells = BJAB cells (human, UniProt P01903 26-254); assay: flow
[8] = target: T1, recombinant HLA-DR …; assay: BLI; remark: listed apart in the source

Sequence of BJAB cells (P01903 whole entry): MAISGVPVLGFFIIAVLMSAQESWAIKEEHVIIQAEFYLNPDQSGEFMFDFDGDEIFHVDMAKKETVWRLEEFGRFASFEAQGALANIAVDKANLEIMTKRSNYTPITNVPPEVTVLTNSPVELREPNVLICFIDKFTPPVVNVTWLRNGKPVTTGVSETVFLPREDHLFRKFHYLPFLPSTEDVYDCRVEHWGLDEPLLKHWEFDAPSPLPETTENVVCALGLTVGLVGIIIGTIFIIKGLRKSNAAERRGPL

B1: 44H10 (antibody, V domains shown)
VH: QVQLKESGPGLVAPSQSLSITCTVSGFSLTSYGVHWVRQPPGKGLEWLGVIWAGGSINYNSALMSRLSISKDNFKSQVFLKMSSLQTDDTAMYYCARAYGDYVHYAMDYWGQGTSVTASS
VL: DIQMTQSPSSLSASLGQRVSLTCRASQEISGYLTWLQQKPDGTIKRLVYAASTLDSGVPKRFSGSRSGSDYSLTISSLESEDFADYYCLQYTNYPLTFGAGTKLELKR
**Q.** What does the source list for B1?
**A.** Kd [1]: 0.2 nM; Kd [2]: 0.4 nM; Kd [3]: 2.8 nM; Kd [4]: 0.2 nM; Kd [5]: 0.5 nM

B2: chimeric human IgG1 anti-HLA-DR 44H10 antibody (antibody, V domains shown)
VH: QVQLKESGPGLVAPSQSLSITCTVSGFSLTSYGVHWVRQPPGKGLEWLGVIWAGGSINYNSALMSRLSISKDNFKSQVFLKMSSLQTDDTAMYYCARAYGDYVHYAMDYWGQGTSVTASS
VL: DIQMTQSPSSLSASLGQRVSLTCRASQEISGYLTWLQQKPDGTIKRLVYAASTLDSGVPKRFSGSRSGSDYSLTISSLESEDFADYYCLQYTNYPLTFGAGTKLELKR
**Q.** With B2 as the binder, how does the Kd [6] read?
**A.** 199 nM

**Q.** What about the Kd [7] of the same binder?
**A.** 1.5 nM

B3: V17 (antibody, V domains shown)
VH: QVTLKESGPVLVKPTETLTLTCTVSGFSLTSYGVHWIRQPPGKALEWLAVIWAGGSISYSTSLMSRLTISKDTSKSQVVLTMTNMDPVDTATYYCARAYGDYVHYAMDYWGQGTLVTVSS
VL: DIQMTQSPSSLSASVGDRVTITCRASQEISGYLTWLQQKPGKAPKLLIYAASTLDSGVPSRFSGSGSGTDFTLTISSLQPEDFATYYCLQYTNYPLTFGQGTKLEIK
**Q.** Which EC50 (BJAB cells) does the source give for B3 here?
**A.** 5.02 mg/L

B4: humanized 44H10 variant V21 (antibody, V domains shown)
VH: QVTLKESGPVLVKPTETLTLTCTVSGFSLTSYGVHWIRQPPGKALEWLAVIWAGGSISYSTSLMSRLTISKDTSKSQVVLTMTNMDPVDTATYYCARAYGDYVHYAMDYWGQGTLVTVSS
VL: DIQMTQSPSSLSASVGDRVTITCRASQEISGYLTWLQQKPGKAPKLLIYAASTLDSGVPKRFSGSRSGTDFTLTISSLQPEDFATYYCLQYTNYPLTFGQGTKLEIK
**Q.** Which Kd [6] does the source give for B4 here?
**A.** 221 nM

**Q.** And the Kd [8]?
**A.** 157 nM

B5: V19 (R66 back-mutation) (antibody, V domains shown)
VH: QVTLKESGPVLVKPTETLTLTCTVSGFSLTSYGVHWIRQPPGKALEWLAVIWAGGSISYSTSLMSRLTISKDTSKSQVVLTMTNMDPVDTATYYCARAYGDYVHYAMDYWGQGTLVTVSS
VL: DIQMTQSPSSLSASVGDRVTITCRASQEISGYLTWLQQKPGKAPKLLIYAASTLDSGVPSRFSGSRSGTDFTLTISSLQPEDFATYYCLQYTNYPLTFGQGTKLEIK
**Q.** B5 was tested. Which EC50 (BJAB cells) did it give?
**A.** 2.02 mg/L

B6: V14 with the V71K and F78V mutations in the VH (antibody, V domains shown)
VH: QVQLQESGPGLVKPSETLSLTCTVSGFSLTSYGVHWIRQPPGKGLEWIGVIWAGGSINYNSALMSRVTISKDTSKNQVSLKLSSVTAADTAVYYCARAYGDYVHYAMDYWGQGTLVTVSS
VL: DIQMTQSPSSLSASVGDRVTITCRASQEISGYLTWLQQKPGKAPKLLIYAASTLDSGVPSRFSGSGSGTDFTLTISSLQPEDFATYYCLQYTNYPLTFGQGTKLEIK
**Q.** How did the Kd [8] turn out when B6 was run?
**A.** 206 nM

B7: V20 (K60 back-mutation) (antibody, V domains shown)
VH: QVTLKESGPVLVKPTETLTLTCTVSGFSLTSYGVHWIRQPPGKALEWLAVIWAGGSISYSTSLMSRLTISKDTSKSQVVLTMTNMDPVDTATYYCARAYGDYVHYAMDYWGQGTLVTVSS
VL: DIQMTQSPSSLSASVGDRVTITCRASQEISGYLTWLQQKPGKAPKLLIYAASTLDSGVPKRFSGSGSGTDFTLTISSLQPEDFATYYCLQYTNYPLTFGQGTKLEIK
**Q.** Which EC50 (BJAB cells) does the source give for B7 here?
**A.** 2.21 mg/L
